Experimental data as given in paper PMC5593925.

Assays:
[1] = target: actin (UniProt P68135); test: MST
[2] = target: plasminogen (affinity column for M. pneumoniae lysate; microscale thermophoresis); test: MST; fluorescently labelled host protein, Ef-Tu unlabelled; 40%, 60% and 80% MST power, 30 s
[3] = target: fetuin (UniProt P12763); test: as above
UniProt P12763, sequence (P12763 19-359): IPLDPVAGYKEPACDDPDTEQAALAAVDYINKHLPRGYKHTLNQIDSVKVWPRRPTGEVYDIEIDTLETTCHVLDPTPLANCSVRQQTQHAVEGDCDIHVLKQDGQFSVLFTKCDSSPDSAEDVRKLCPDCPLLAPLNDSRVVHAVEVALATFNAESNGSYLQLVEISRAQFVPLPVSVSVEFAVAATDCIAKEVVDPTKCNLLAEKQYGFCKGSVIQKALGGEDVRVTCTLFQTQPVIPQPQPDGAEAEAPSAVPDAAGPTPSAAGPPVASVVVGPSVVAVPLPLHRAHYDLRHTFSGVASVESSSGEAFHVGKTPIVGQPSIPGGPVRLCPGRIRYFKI

Substance	Kd [1] [nM]	Kd [2] [nM]	Kd [3] [nM]
recombinant Elongation factor Tu of Mycoplasma pneumoniae (from UniProt P23568 1-394) (natural protein)	19	933	
recombinant Elongation factor Tu of Mycoplasma pneumoniae (from UniProt P23568 1-394) (natural protein; other documents disagree on this pair)			53
